Results reported in the nanobody polyreactivity screen of Harvey et al. (2022).

Assay: yeast display, Sf9 membrane polyspecificity reagent, FACS + sequencing; frameworks hold sequencing errors
Procedure, shortened: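 Galactose induction of a Saccharomyces cerevisiae BJ5465 synthetic nanobody display library ran 36–48 hours. The cells were then stained for 1 hour at 4 °C with 10% biotinylated, detergent-solubilized Sf9 membrane reagent, pulled down on streptavidin microbeads and FACS-sorted into low and high (top ~1%) gates on expression and reagent-binding fluorescence. Labels for polyreactivity follow the gate of origin.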

Sequence | polyreactivity (PSR sort gate)
QVQLVESGGGLVQAGGSLRLSCAASGSTIVGYTMGWYRQAPGKERELVAAISRGGGSTYYADSVKGRFTISRDNAKNTVYLQMNSLKPEDTAVYYCNAYTYNRYYWGQGTQVTVSS | high polyreactivity
QVQLVESGGGLVQAGGSLRLSCAASGSIFRYYAMGWYRQAPGKERELVAVITRGGSTYYADSVKGRFTISRDNAKNTVYLQMNSLKPEDTAVYYCAADYWPACMDRGYWGQATQVTVSS | low polyreactivity
QVQLVESGGGLVQAGGILRLSCAASGFIFNSYAMGWYRQAPGKERELVAAITKSGGRTYYADSVKGRFTISRDNEKNTVYFQMNSLKPEDTAVYYCAARAYRSSVYRGDYWGQGTQVTVSS | high polyreactivity
QVQLVESGGGLVQAGGSLRLTCAASGITFVYNAMGWYRQAPGKERELVAAISWRGGSTYYADYVKGRFTISRDNAKNTVYLQMNSLKPEDTAVYYCNNLPTYPDYGYDSWGQGTQVTVSS | high polyreactivity
QVQLVESVGGLVQAGGSLRLSCAASGSTFVIYAMGWYRQAHGKERELVAAISGRTGSTYYADSVKGRFTISRDNAKNTVYLQMNSLKPEDTAVYYCAAYKRSGLKYGHWGQGTQVTVSS | high polyreactivity
QVQLVESGGGLVQAGGSLRLSCAASGRIFRYYTMGWYRQAPGKERELVAAITSSSGSTYYADSVKGRFTISRDNAKNTVYLQMNSLKPEDTAVYYCNAVRYTTQTPKVDYGYWGQGTQVTVSS | high polyreactivity
QVQLVESGGGLVQAGGSLRLSCAASGFIFSYYAKGWYRQAPGKERELVAAIDGSGGSTYYADSVKGRFTISRDNAKNTVYLQMNSLKPVDTAVYYCNTLIFIQGLGYDYWGQGTQVTVSS | high polyreactivity
QVQLVESGGGLVQAGGSLRLSCAASGRIFSSYAMGWYRQAPGKERELVAAISSSGGNTYYADSVKGRFTISRDNAKNTVYLQMNSLKPEDTAVYYCNTRWVHRDWYDYWGLGTQVTVSS | high polyreactivity
QVQLVESGGGLVQAGGSLRLSCAASGRIFIGNAMGWYRQAPGKERELVADISYSGGTTYYADSVKGRFTISRDNAKNTVYLQMNSLKPEDTAVYYCNKYDPRPVWQGWVWIEYYYWGQGTQVTVSS | low polyreactivity
QVQLVESGGGVVQAGGSLRLSCAASGITFNGNAMGWYRQAPGKERELVATISRSDGRTYYADSVKGRFTISRDNAKNTDYFQMNSLKPEDTAVYYCAAYTTRPYWGQGTQVTVSS | high polyreactivity
QVQLVESGGGLVQAGGSLRLSCSDSGFIYRMYAMGWYRQAHGKETELVSAISSDASTNYADSVKGRFTISRDNAKNTVYLQMNSLKPEDTAVYYCAAAVKRGYAQSFISDGYGYWGQGTQVTVSS | low polyreactivity
QVQLVESGGGLVQAGGSLRLSCAASGSTFYDYAMGWYRQAPGKERELVAAISRGGSTYYADCVKGRFTISRDNAKNTVYLQMNSLKPEDTAVYYCAAGRSYDSGFYYWGQGTQVTVSS | low polyreactivity
QVQLVESGGGLVQAGGSLRLSCAASGIIFTKYAMGWYRQAPGKERELVAAITASGGSTYYADSVKGRFTISRDNAKNTVYLQMNSLKPEDTAVYYCAARSQSRYGYWGQGTQVTVSS | high polyreactivity
QVQLVESGGGLVQAGGSLRLSCAASGSIFRRNAMGWYRQAPGKERELVAAITWRGDRTYYADSVKGRFTISRDNAKNTVYLQMNSLKPEDTAVYYCNKLGRIQYDYWGQGTQVTVSS | high polyreactivity
QVQLVESGGGLVQAGGSLRLSCAASGSIFGYNAMGWYRQAPGKEREFVAAITSGGSTYYADSVKGRFTISRDNAKNTVYLQMNSLKPEDTAVYYCRRRNVDSTRRYDYWGQGTQVTVSS | high polyreactivity
QVQVVESGAGLVQAGGILRLRCASSGFILYPNAMGWYRQAPGKERELVAAITESDGITYYADSVKGRFTISRDNAKNTVYLQMNSLKPEDTAVYYCNTGFSYTYDYWGQGTQVTVSS | low polyreactivity
QVQLVESGGGLVQAGGSLRLSCAASGRISLSNAMGWYRQAPGKEREFVAAITKRSDRTYYADSVKGRFTISRDNAKNTVYLQMNSLKPEDTAVYYCAAKPLFGTRDDYWGQGTHVTVSS | low polyreactivity
QVQLVESGGGLLQAGGSLRLSCAASGFTFSTNAMGWYRQAPGKERDLVAAITWRGGSTYYADSVKGRFTISRDIAKKTVYVQLNSLKPEDTAVYYCAGRSRGSHVSYYKKFDYWGQGTHVTVSS | low polyreactivity
QVNLVETGGGLVQAVCSLRLSCAASGSIFGIYTMGWYRQAPGKERELVAAINSGGSTIYADSVKGRFTISRDNAKNTVYLQMNSLKPEDSAVYYWIAYIHPPGPRVYSREYDYWGQGTQLTVSS | low polyreactivity
QVQLVESGGGLVQAGGSLRLSCAASGSTFAYYTMGWYRQAPGKERELVAAITSAGRTSYADSVKGRFTISRDNAKNTVYLQMKSLKPDDTAVYYCAKGRKPGYYYWGQGTQVTVSS | high polyreactivity
QVQLVESGGGLVQAGGSLRLSCAASGGIFDRYAMGWYRQAPGKERELVAAITSGGSTNYADSVKGRFTISRDNAKNTVYLQMNSLKPEDTAVYYCNADLGILSGVAEGPTFREYDYWGQGTQVTVSS | low polyreactivity
QVQRVESGGGLVQAGGSLLLSCAASGRTIRHNAMGWYRPAPGKERELVAAISRSGGSTYYADSVKGRFTISRDKAKNTVYLLMNSLKPEDTAVYYCAAGYHGYDWGQGTQVTVSS | high polyreactivity

Sequence | polyreactivity (PSR sort gate)
QDQLVESGGGLVQAGGSLRLSCAASGSIFARYAMGWYRQAPGKERELVAAINSTVSTNYADSVKGRFTISRDNAKNTVYLQMNSLKPEDTAVYYCAVDIVRGGRDSWGQGTQVTVSS | low polyreactivity
QVQLVESGGGLVQAGGSLRLSCAASGRIYSSYAMGRYRQAPGKERELVAAISYSGDRTYYADSVKGRFTISRDNAKNTVYLQMNSLKPEDTAVYYCAARRVTRTTVYRYQYYYWGQGTQVTVSS | high polyreactivity
QVQLVESGGGLVQAGFSLRLSCAASGSTFQSYTMGRSRQAPGKERELVAAISSSGGRTYYADSVKGRYTISRDYAKNTVYLQMNSLNPEDTAVYYCAAVSKSWRGATWYDYWGQGTQVTVSS | high polyreactivity
QVQLVESGGGLVQAGVILRLSCAASGLIFGLYAMGWYRQAPGKERELVAAISYRTDSTYADSVKGRFTISRDNAKNTVYLQMNSLKPEDTAVYYCAADLRVSVRYYYWGQGTQVTVSS | low polyreactivity
QVQLVESGGGLVQAGGSLRLSCAASGFTFDFYAMGWYRQAPGKERELVAAINWSGSSTYYADSVKGRFTISRDTAKNTVYLQMNSLKPEDTAVYYCAAQVYYTLFPDVYTMYYWGQGTQVTVSS | high polyreactivity
QVQLVESGGGLVQAGGSLLLSSAASGSIFQPYAMGWYRPAPGKERELVAAISIGDSTNYADSVKGRFTISRDNAKITVYLQMNSLKPEDTAVYYCNTTGEYYDYWGQGTQVTVSS | low polyreactivity
QVQLVESAGGLVQAGGSLRLSCAAYGSIIKRNAMGWYRQAPRKERQLVATSSSGDGSTRYADSVKWRFTISRDNAKNTVYLQMNSLKPEDTAVYYCALDFTYTYYRWKNPYRIGHDYWGHGTQVTVSS | low polyreactivity
QVQLVESCVVLVQAAGSLRLSFAHSGSTFKVYAMGTYRQATGKERELVASISSGGSTNYADSVKGRFTISRDNAKNTVYLQMNSLKPEDTAVYYCALRRYTHRRYRFDYWGQGTQVTVSS | high polyreactivity
QVQLVESGGGLVQAGGSLRLSCAASGSILAYYAMGWYRQAPGKERELVADITSSGGITYYADSVKGRFTISRDNAKNTVYLQMNSLKPEDTAVYYCNADSWAIGGGSYPYDYWGQGTQVTVSS | low polyreactivity
QFQLVESGGGLVQAGGSLRLSCAASGSTFGVYAMGWYRQAPGKERELVATINSGGSTNYADSVKGLFTISRDNAKNTVYLQMNSLKPEDTAVYYCAAGPFWQDFYVYEYDYWGQGTQVTVSS | low polyreactivity
QVQLVESGGGLVQAGGSLRLSCAASGRIFYYYAMRWYRQAPGKERELVATISGIGGSTYYADSVKGRFTISRDNAKNTVYLHMNSLKPEDTAVYYCNADYPTSYPLLKSGFDYWGQGTQVTVSS | low polyreactivity
QVQLVESGGGLVQAGGSLRLSCAASGRIFVLYAMGWYRQAPGKERELVAAITSDGSSTYYADSVKGRFTISRDNAKNTVYLQMISLKPEDNAVYYCNKVQGWARYRSGKDMGYWGQGTQVTVSS | low polyreactivity
QVQLVESGGGLVQAGGSLRLSCAASGFIFYYYAMGWYRQAPGKERELVAGIDKTGGSTYYADSVKGRFTISRDNAKNTVYFQMNSLKPEDTAVYYCAAGYFFPRLRFRNYAYVYWGQGTQVTVSS | high polyreactivity
QVQLVESGGGLVQAGGSLRLSCAASGITFDLYDMGWYRQAPGKERELVAAITDADSTYYADSVKGRFTISRDNAKNTVYLQMNSLKPADTAVYYCAADFFYSVYSGHYDYWGQGTQVTVSS | low polyreactivity
QVQLVESGGGLVQAGGSLRLSCAASGRIFNYYAMGWYRQATGKERELVARIDASGDSTYYADSVKGRFTISRDNAKNTVYLQMNSLKPEDTAVYYCNKDYLYSYLWGWKVYSYDYWGQGTQVTVSS | low polyreactivity
QVQLVESGGGLVQAGGSLRLSCAASGFILYYYAMGWYRQAPGKERELVAAISSGGNTDYADSVKGRFTISRDNAKNTVYLQMNSLKPEDTAVYYCAARGYHYSYLRGDTGYYYWGQGTQVTVSS | low polyreactivity
QVQLVESGGGLVQAGGSLRLSCAASGSTFYYYAMGWYRQAPGKERELVAAITKSRGSTYYADSVKGRFTISRDNAKNTVYLQMNSLKPEDTAVYDCAAYLRSGYKFDYWGQGTQGTVSS | low polyreactivity
QVQLVESGGGLLQAGGSLRLSCAASGRTFWWNAMGWYRQAPGKERELVAVISYSGGSTYYADSVKGRFTISRDNAKNTVYLQMNSLKPEDTAVYYCAADLYSHTGYYWGQGTQVTVSS | high polyreactivity
QVQLVESGGGLVQAGGSLRLSCAASGSTFFLYAMGWYRQAPGKEREFVAAISIGGSTNYADSVKGRFTISRDNAKNTVYLQMNSLKPEDTAVYYCAKLDLQYIQYLGYDYWGQGTQVTVSS | low polyreactivity
QVQLVESGGGLVQAGGSLRLSCAASGRIFYSYARGWYRQAPGKERELVAAITESGGSTNYADSVKGRFTISRDNAKNSVYLQMNSLKPEDSAVYYCNARYKLTFNLYNYRGQGTQVTVSS | low polyreactivity
QVQLVESGGGLVQAGGSLRLSCAASGSTLRRYAMGWYRQAPGKERELVAAISGTGSRTYYADSVKGRFSISRDNATNTVYLHMISLKREDTAVYYCNASPYGLTENDYWGQGTQVTVSS | high polyreactivity
